Measurements published in US20260167959A1, “APTAZYME-BASED REGULATABLE GENE EXPRESSION SYSTEMS” (REJUVENATE BIO INC, priority 2022, published 2026).
Substitutions are numbered along the chain they refer to.

B1: RA181 (nucleic acid)
DNA: GCGCGCCGGAATACCAGCATCGTCTTGATGCCCTTGGAAGTCCGGTCCTGGATTCGCGGAAACGCGTACATCCAGCTGACGAGTCCCAAATAGGACGAAACGCGC
modifications: expressed or natural sequence
B2: RA193 (nucleic acid)
DNA: CCGGAATACCAGCATCGTCTTGATGCCCTTGGAAGTCCGGGCGCGTCCTGGATTCGCGGAAACGCGTACATCCAGCTGACGAGTCCCAAATAGGACGAAACGCGC
modifications: expressed or natural sequence
B3: RA184 (nucleic acid)
DNA: GAGAATACCAGCATCGTCTTGATGCCCTTGGAAGTCTCGCGTCCTGGATTCGCGGAAACGCGTACATCCAGCTGACGAGTCCCAAATAGGACGAAACGCGC
modifications: expressed or natural sequence
B4: RA174 (nucleic acid)
DNA: GCGCGTCCTGGATTCGCGGAAACGCGTACATCCAGCCGGAATACCAGCATCGTCTTGATGCCCTTGGAAGTCCGTGACGAGTCCCAAATAGGACGAAACGCGC
modifications: expressed or natural sequence
B5: RA017 (nucleic acid)
DNA: GCGCGTCCTGGCGGAATACCAGCATCGTCTTGATGCCCTTGGAAGTCCGATTCGCGGAAACGCGTACATCCAGCTGACGAGTCCCAAATAGGACGAAACGCGC
modifications: expressed or natural sequence
B6: RA197 (nucleic acid)
DNA: GCGCGTCCTGGATTCGCGGAAACGCGTACATCCAGCTGACGAGTCCCAAATAGGACAAAACGCGC
modifications: expressed or natural sequence
B7: RA196 (nucleic acid)
DNA: GCGCGTCCTGGATTCGCGGAAACGCGTACATCCAGCTGACGAGTCCCAAATGAGAATACCAGCATCGTCTTGATGCCCTTGGAAGTCTCAGGACGAAACGCGC
modifications: expressed or natural sequence
B8: RA194 (nucleic acid)
DNA: GCGCGTCCTGGATTCGCGGAAACGCGTACATCCAGCTGACGAGAATACCAGCATCGTCTTGATGCCCTTGGAAGTCTCGAGTCCCAAATAGGACGAAACGCGC
modifications: expressed or natural sequence
B9: RA183 (nucleic acid)
DNA: GCGCGTCCTGGATTCGCGGAAACGCGTACATCCAGCTGAGAATACCAGCATCGTCTTGATGCCCTTGGAAGTCTACGAGTCCCAAATAGGACGAAACGCGC
modifications: expressed or natural sequence
B10: RA019 (nucleic acid)
DNA: GCGCGTCCTGGATTCGCGGAAACGCGTACATCCAGCTGACGGGAATACCAGCATCGTCTTGATGCCCTTGGAAGTCCAGTCCCAAATAGGACAAAACGCGC
modifications: expressed or natural sequence
B11: RA188 (nucleic acid)
DNA: GCGCGTCCTGGATTCGCGGAAACGCGTACATCCAGCTGACGAGTCCCAAATAGGACGAAGAGAATACCAGCATCGTCTTGATGCCCTTGGAAGTCTCACGCGC
modifications: expressed or natural sequence
B12: RA177 (nucleic acid)
DNA: GCGCGTCCTGGATTCGCGGAAACGCGTACATCCAGCTGACGAGTCCCAAATAGGACGAAACGCAGTGATACCAGCATCGTCTTGATGCCCTTGGCAGCACTGC
modifications: expressed or natural sequence
B13: RA179 (nucleic acid)
DNA: GCGCGTCCTGGATTCGCGGAAACGCGTACATCCAGCTCGGAATACCAGCATCGTCTTGATGCCCTTGGAAGTCCGGACGAGTCCCAAATAGGACGAAACGCGC
modifications: expressed or natural sequence
B14: RA189 (nucleic acid)
DNA: GCGCGTCCTGGATTCGGAATACCAGCATCGTCTTGATGCCCTTGGAAGTCCGCGGAAACGCGTACATCCAGCTGACGAGTCCCAAATAGGACGAAACGCGC
modifications: expressed or natural sequence
B15: RA192 (nucleic acid)
DNA: GCGCGTCCTGGATTCGCGGAAACGCGTACATCCAGCTGACGAGTCCCAAATGGAATACCAGCATCGTCTTGATGCCCTTGGAAGTCCAGGACGAAACGCGC
modifications: expressed or natural sequence
B16: RA190 (nucleic acid)
DNA: GCGCGTCCTGGATTCGCGAGTGATACCAGCATCGTCTTGATGCCCTTGGCAGCACTGAAACGCGTACATCCAGCTGACGAGTCCCAAATAGGACGAAACGCGC
modifications: expressed or natural sequence
B17: RA191 (nucleic acid)
DNA: GCGCGTCCTGGATTCGCGGAACGAGAATACCAGCATCGTCTTGATGCCCTTGGAAGTCTCGACGCGTACATCCAGCTGACGAGTCCCAAATAGGACGAAACGCGC
modifications: expressed or natural sequence
B18: RA176 (nucleic acid)
DNA: GCGCGTCCTGGAATACCAGCATCGTCTTGATGCCCTTGGAAGTCCGGATTCGCGGAAACGCGTACATCCAGCTGACGAGTCCCAAATAGGACGAAACGCGC
modifications: expressed or natural sequence
B19: RA175 (nucleic acid)
DNA: GCGCGTCCTGGATTCGCGGAAACGCGTACATCCAGCTGACGAGTCCCAAATAGGACGAAACGCGCCGAGAATACCAGCATCGTCTTGATGCCCTTGGAAGTCTCG
modifications: expressed or natural sequence
B20: RA178 (nucleic acid)
DNA: GCGCGTCCTGGATTCGCGGAAACGCGTACATCCGGAATACCAGCATCGTCTTGATGCCCTTGGAAGTCCAGCTGACGAGTCCCAAATAGGACGAAACGCGC
modifications: expressed or natural sequence
B21: RA185 (nucleic acid)
DNA: GCGCGTCCTGGATTCGCGGAAACGCGTACATCCAGCTGACGAGTCCCAAATACGGAATACCAGCATCGTCTTGATGCCCTTGGAAGTCCGGGACGAAACGCGC
modifications: expressed or natural sequence
B22: RA195 (nucleic acid)
DNA: GCGCGTCGAGAATACCAGCATCGTCTTGATGCCCTTGGAAGTCTCGCCTGGATTCGCGGAAACGCGTACATCCAGCTGACGAGTCCCAAATAGGACGAAACGCGC
modifications: expressed or natural sequence
B23: RA180 (nucleic acid)
DNA: GCGCGTCCTGGATTCGCGGAAACGCGTACATCCAGCTGGAGAATACCAGCATCGTCTTGATGCCCTTGGAAGTCTCACGAGTCCCAAATAGGACGAAACGCGC
modifications: expressed or natural sequence
B24: RA182 (nucleic acid)
DNA: GCGCGTCCTGGATTCGCGGAAACGCGGAGAATACCAGCATCGTCTTGATGCCCTTGGAAGTCTCTACATCCAGCTGACGAGTCCCAAATAGGACGAAACGCGC
modifications: expressed or natural sequence
B25: RA186 (nucleic acid)
DNA: GCGCGTCCTGGATTCGCGCGAGAATACCAGCATCGTCTTGATGCCCTTGGAAGTCTCGGAAACGCGTACATCCAGCTGACGAGTCCCAAATAGGACGAAACGCGC
modifications: expressed or natural sequence
B26: RA001 (nucleic acid)
DNA: GCGCGTCCTGGATTCGCGGAAACGCGTACATCCAGCTGACGAGTCCCAAATAGGACGAAACGCGCAGTGATACCAGCATCGTCTTGATGCCCTTGGCAGCACT
modifications: expressed or natural sequence
B27: RA187 (nucleic acid)
DNA: B26 DNA with A66G, G67A, T68G, G69A, C97A, C100T, A101C, C102T, T103C
modifications: expressed or natural sequence
B28: RA018 (nucleic acid)
DNA: GCGCGTCCTGGATTCGCGGAAACGCGTACATCCAGCTGACGAGTCCCAAAGTGATACCAGCATCGTCTTGATGCCCTTGGCAGCACTATAGGACGAAACGCGC
modifications: expressed or natural sequence

Test system: Renilla luciferase RNA
Assay: Barcoded aptazyme variant library screen: un-cleaved Renilla luciferase RNA by barcode read counts, HEK293-T cells
Assay type: cell-based
Conditions: un-cleaved Renilla luciferase RNA, HEK293-T cells cultured with 1 mM theophylline (ON) over without theophylline (OFF); barcode read counts, triplicate
Procedure, shortened: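 Barcode sequencing of cDNA versus DNA, normalized per aptazyme, gave the un-cleaved Renilla luciferase RNA fraction and fold-change with versus without theophylline (triplicates). Library: T3H48 ribozyme with one of seven theophylline aptamer variants inserted at each position, placed in the Renilla 3′ UTR of a dual-luciferase vector.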

Molecule | Fold change in RNA expression between the ON state and the OFF state
B1 | 1.3 fold
B2 | 1.2 fold
B3 | 1.3 fold
B4 | 1.3 fold
B5 | 2.8 fold
B6 | 1.2 fold
B7 | 1.2 fold
B8 | 1.2 fold
B9 | 1.3 fold
B10 | 2.7 fold
B11 | 1.2 fold
B12 | 1.3 fold
B13 | 1.3 fold
B14 | 1.2 fold
B15 | 1.2 fold
B16 | 1.2 fold
B17 | 1.2 fold
B18 | 1.3 fold
B19 | 1.3 fold
B20 | 1.3 fold
B21 | 1.3 fold
B22 | 1.2 fold
B23 | 1.3 fold
B24 | 1.3 fold
B25 | 1.3 fold
B26 | >6 fold
B27 | 1.3 fold
B28 | 2.8 fold
